Molecular target: T1, biotin-labeled human PD-1 Fc protein (human, biotin-labeled (site not stated))
T1 construct: also called PD-1-Fc-biotin
Test: capture ELISA

T1 sequence (chain, as listed by the source limits assumed): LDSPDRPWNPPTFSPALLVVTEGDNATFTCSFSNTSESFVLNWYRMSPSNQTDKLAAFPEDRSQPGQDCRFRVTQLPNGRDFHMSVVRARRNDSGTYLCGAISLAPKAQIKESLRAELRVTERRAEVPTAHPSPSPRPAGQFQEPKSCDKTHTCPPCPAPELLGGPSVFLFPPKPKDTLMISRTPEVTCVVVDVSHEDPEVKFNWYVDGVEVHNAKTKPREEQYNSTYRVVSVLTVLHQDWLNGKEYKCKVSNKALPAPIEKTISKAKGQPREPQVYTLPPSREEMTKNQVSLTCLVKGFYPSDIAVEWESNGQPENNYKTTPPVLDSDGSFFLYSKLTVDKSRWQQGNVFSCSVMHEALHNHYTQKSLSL

binding result: binds
B1: huD2H3-V13 (antibody, human IgG1, kappa, V domains shown)
VH: EVQLVQSGAEVKKPGSSVKVSCKSSGYTFTNYWMHWVRQAPGQGLEWIGAIFPRNSETNYNQKFKARATLTADTSTSTAYMELSSLRSEDTAVYFCTRNRYGLDYWGQGTLVTVSS
VL: DIVMTQSPDSLAVSLGERATINCRASESVSLHGTRLMHWYQQKPGQPPKLLIYLGSNLESGVPDRFSGSGSGTDFTLTISSLQAEDVAVYYCQQSIEDPWTFGQGTKLEIKR
notes: Humanized D2H3, human IgG1/kappa; No EC50 is printed for this variant; it appears only in the sentences about the group
